This note sets out measurements from paper PMC6876245.

The target in data set [1] is T1, POT1 H266L;TPP1 (human;human, UniProt Q9NUX5;Q96AP0 1-634;3-248, H266L|). The data set can be described thus: EMSA.
Target sequence in this assay (Q9NUX5 whole entry H266L, chain 1 of 2): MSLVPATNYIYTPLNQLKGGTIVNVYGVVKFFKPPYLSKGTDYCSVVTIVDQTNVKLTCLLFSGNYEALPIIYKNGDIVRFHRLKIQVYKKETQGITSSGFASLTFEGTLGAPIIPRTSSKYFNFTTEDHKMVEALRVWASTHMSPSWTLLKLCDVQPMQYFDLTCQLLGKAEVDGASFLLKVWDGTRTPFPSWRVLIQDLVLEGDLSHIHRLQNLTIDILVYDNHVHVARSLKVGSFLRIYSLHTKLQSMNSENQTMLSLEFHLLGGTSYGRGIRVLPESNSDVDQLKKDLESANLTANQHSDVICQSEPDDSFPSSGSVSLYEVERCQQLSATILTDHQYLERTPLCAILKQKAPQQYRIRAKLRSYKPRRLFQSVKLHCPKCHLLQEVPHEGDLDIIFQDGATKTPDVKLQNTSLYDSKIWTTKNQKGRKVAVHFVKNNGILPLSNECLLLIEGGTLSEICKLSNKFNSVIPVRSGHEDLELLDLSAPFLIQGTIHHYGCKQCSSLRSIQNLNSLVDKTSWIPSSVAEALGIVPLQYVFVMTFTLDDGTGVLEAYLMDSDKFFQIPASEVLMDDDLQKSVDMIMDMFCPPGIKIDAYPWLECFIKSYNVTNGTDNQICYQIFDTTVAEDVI
Target sequence in this assay (Q96AP0 3-248, chain 2 of 2): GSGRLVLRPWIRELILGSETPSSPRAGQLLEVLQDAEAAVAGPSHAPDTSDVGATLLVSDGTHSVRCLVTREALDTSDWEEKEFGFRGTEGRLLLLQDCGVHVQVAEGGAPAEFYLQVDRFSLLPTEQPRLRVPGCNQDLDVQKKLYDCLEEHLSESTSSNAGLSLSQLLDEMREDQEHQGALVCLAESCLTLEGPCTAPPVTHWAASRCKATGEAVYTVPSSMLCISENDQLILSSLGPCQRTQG
Data set [2] addresses T2, POT1 Y36N;TPP1 (human;human, UniProt Q9NUX5;Q96AP0 1-634;3-248, Y36N|). The data set can be described thus: EMSA.
Target sequence in this assay (Q9NUX5 whole entry Y36N, chain 1 of 2): as the sequence (Q9NUX5 whole entry H266L, chain 1 of 2) above, with Y36N, L266H counted along it
Target sequence in this assay (Q96AP0 3-248, chain 2 of 2): as the sequence (Q96AP0 3-248, chain 2 of 2) above
The target of data set [3] is T3, POT1;TPP1 (human;human, UniProt Q9NUX5;Q96AP0 1-634;3-248, |). The data set can be described thus: EMSA.
Data set [4] has as its target T4, POT1-N (human, UniProt Q9NUX5 1-340).
T4 sequence: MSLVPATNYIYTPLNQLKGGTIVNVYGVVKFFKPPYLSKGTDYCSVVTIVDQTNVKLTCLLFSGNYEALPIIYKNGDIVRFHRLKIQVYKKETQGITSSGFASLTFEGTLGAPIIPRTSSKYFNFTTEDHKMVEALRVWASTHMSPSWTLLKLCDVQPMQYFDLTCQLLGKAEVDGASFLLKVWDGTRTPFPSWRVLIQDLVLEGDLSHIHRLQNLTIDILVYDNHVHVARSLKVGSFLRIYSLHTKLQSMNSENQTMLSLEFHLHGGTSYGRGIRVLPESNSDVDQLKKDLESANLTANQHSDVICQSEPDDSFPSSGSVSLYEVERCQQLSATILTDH
The data set can be described thus: hydroxyl radical footprinting MS.

Data set [5] deals with T2, POT1 Y36N;TPP1. The data set can be described thus: EMSA. This is another data set of the same source.
Target sequence in this assay (Q96AP0 3-248, stated change not applied, one chain of several): as the sequence (Q96AP0 3-248, chain 2 of 2) above
The target in data set [6] is T3, POT1;TPP1. The data set can be described thus: EMSA. This is another data set of the same source.
Data set [7] concerns the target T1, POT1 H266L;TPP1. The data set can be described thus: stopped-flow CD.
Target sequence in this assay (Q96AP0 3-248, stated change not applied, one chain of several): as the sequence (Q96AP0 3-248, chain 2 of 2) above
Data set [8] concerns the target T4, POT1-N. The data set can be described thus: hydroxyl radical footprinting MS. The source holds these as a separate data set.

Where two headings read alike, the source gives them in different places.

T3 sequence (Q96AP0 3-248, one chain of several): as the sequence (Q96AP0 3-248, chain 2 of 2) above

B1: hT12 (ssDNA)
DNA: GGTTAGGGTTAG
Consider B1, for which the Kd in data set [1] was 29.1 ± 9.3 nM; in data set [2], 2.2 ± 1.1 nM; in data set [3] it was 1 ± 0.5 nM. In addition, the binding result in data set [4] is given as “binds”.

B2: hT72 (ssDNA)
DNA: GGTTAGGGTTAGGGTTAGGGTTAGGGTTAGGGTTAGGGTTAGGGTTAGGGTTAGGGTTAGGGTTAGGGTTAG
Take B2: the “apparent K (half saturation)” value came out at 4.5 ± 0.4 nM in data set [5] and 6.9 ± 0.6 nM in data set [6]. Also, the binding result in data set [7] and in data set [8] was “binds” in each case.
